In patent US20170160291:

Biological target: immature human CFD (proCFD)

B1: recombinant protease MASP1 (protein)
chain: HTVELNNMFGQIQSPGYPDSYPSDSEVTWNITVPDGFRIKLYFMHFNLESSYLCEYDYVKVETEDQVLATFCGRETTDTEQTPGQEVVLSPGSFMSITFRSDFSNEERFTGFDAHYMAVDVDECKEREDEELSCDHYCHNYIGGYYCSCRFGYILHTDNRTCRVECSDNLFTQRTGVITSPDFPNPYPKSSECLYTIELEEGFMVNLQFEDIFDIEDHPEVPCPYDYIKIKVGPKVLGPFCGEKAPEPISTQSHSVLILFHSDNSGENRGWRLSYRAAGNECPELQPPVHGKIEPSQAKYFFKDQVLVSCDTGYKVLKDNVEMDTFQIECLKDGTWSNKIPTCKIVDCRAPGELEHGLITFSTRNNLTTYKSEIKYSCQEPYYKMLNNNTGIYTCSAQGVWMNKVLGRSLPTCLPVCGLPKFSRKLMARIFNGRPAQKGTTPWIAMLSHLNGQPFCGGSLLGSSWIVTAAHCLHQSLDPEDPTLRDSDLLSPSDFKIILGKHWRLRSDENEQHLGVKHTTLHPQYDPNTFENDVALVELLESPVLNAFVMPICLPEGPQQEGAMVIVSGWGKQFLQRFPETLMEIEIPIVDHSTCQKAYAPLKKKVTRDMICAGEKEGGKDACAGDSGGPMVTLNRERGQWYLVGTVSWGDDCGKKDRYGVYSYIHHNKDWIQRVTGVRN
  processing of proCFD (IEF immunoblot after overnight incubation at 37 C): ProCFD treated with MASP1 was not strongly processed (lane 1)

B2: recombinant protease MASP3 (protein)
chain: HTVELNNMFGQIQSPGYPDSYPSDSEVTWNITVPDGFRIKLYFMHFNLESSYLCEYDYVKVETEDQVLATFCGRETTDTEQTPGQEVVLSPGSFMSITFRSDFSNEERFTGFDAHYMAVDVDECKEREDEELSCDHYCHNYIGGYYCSCRFGYILHTDNRTCRVECSDNLFTQRTGVITSPDFPNPYPKSSECLYTIELEEGFMVNLQFEDIFDIEDHPEVPCPYDYIKIKVGPKVLGPFCGEKAPEPISTQSHSVLILFHSDNSGENRGWRLSYRAAGNECPELQPPVHGKIEPSQAKYFFKDQVLVSCDTGYKVLKDNVEMDTFQIECLKDGTWSNKIPTCKIVDCRAPGELEHGLITFSTRNNLTTYKSEIKYSCQEPYYKMLNNNTGIYTCSAQGVWMNKVLGRSLPTCLPECGQPSRSLPSLVKRIIGGRNAEPGLFPWQALIVVEDTSRVPNDKWFGSGALLSASWILTAAHVLRSQRRDTTVIPVSKEHVTVYLGLHDVRDKSGAVNSSAARVVLHPDFNIQNYNHDIALVQLQEPVPLGPHVMPVCLPRLEPEGPAPHMLGLVAGWGISNPNVTVDEIISSGTRTLSDVLQYVKLPVVPHAECKTSYESRSGNYSVTENMFCAGYYEGGKDTCLGDSGGAFVIFDDLSQRWVVQGLVSWGGPEECGSKQVYGVYTKVSNYVDWVWEQMGLPQSVVEPQVER
  degree of processing of the proCFD N terminus (targeted mass spectrometry, convertase activity test): Only the proteases from the MASP family, i.e. L. MASP3 show a successful activation of proCFD
  processing of proCFD (IEF immunoblot after overnight incubation at 37 C): proCFD treated with MASP3 was almost completely converted into active CFD and even shows further processed forms (lane 2)

B3: recombinant protease C1R (protein)
chain: SIPIPQKLFGEVTSPLFPKPYPNNFETTTVITVPTGYRVKLVFQQFDLEPSEGCFYDYVKISADKKSLGRFCGQLGSPLGNPPGKKEFMSQGNKMLLTFHTDFSNEENGTIMFYKGFLAYYQAVDLDECASRSKSGEEDPQPQCQHLCHNYVGGYFCSCRPGYELQEDTHSCQAECSSELYTEASGYISSLEYPRSYPPDLRCNYSIRVERGLTLHLKFLEPFDIDDHQQVHCPYDQLQIYANGKNIGEFCGKQRPPDLDTSSNAVDLLFFTDESGDSRGWKLRYTTEIIKCPQPKTLDEFTIIQNLQPQYQFRDYFIATCKQGYQLIEGNQVLHSFTAVCQDDGTWHRAMPRCKIKDCGQPRNLPNGDFRYTTTMGVNTYKARIQYYCHEPYYKMQTRAGSRESEQGVYTCTAQGIWKNEQKGEKIPRCLPVCGKPVNPVEQRQRIIGGQKAKMGNFPWQVFTNIHGRGGGALLGDRWILTAAHTLYPKEHEAQSNASLDVFLGHTNVEELMKLGNHPIRRVSVHPDYRQDESYNFEGDIALLELENSVTLGPNLLPICLPDNDTFYDLGLMGYVSGFGVMEEKIAHDLRFVRLPVANPQACENWLRGKNRMDVFSQNMFCAGHPSLKQDACQGDSGGVFAVRDPNTDRWVATGIVSWGIGCSRGYGFYTKVLNYVDWIKKEMEEED
  processing of proCFD (IEF immunoblot after overnight incubation at 37 C): The treatment with C1R resulted in a partial processing/activation (lane 3)

B4: recombinant protease C1S (protein)
chain: EPTMYGEILSPNYPQAYPSEVEKSWDIEVPEGYGIHLYFTHLDIELSENCAYDSVQIISGDTEEGRLCGQRSSNNPHSPIVEEFQVPYNKLQVIFKSDFSNEERFTGFAAYYVATDINECTDFVDVPCSHFCNNFIGGYFCSCPPEYFLHDDMKNCGVNCSGDVFTALIGEIASPNYPKPYPENSRCEYQIRLEKGFQVVVTLRREDFDVEAADSAGNCLDSLVFVAGDRQFGPYCGHGFPGPLNIETKSNALDIIFQTDLTGQKKGWKLRYHGDPMPCPKEDTPNSVWEPAKAKYVFRDVVQITCLDGFEVVEGRVGATSFYSTCQSNGKWSNSKLKCQPVDCGIPESIENGKVEDPESTLFGSVIRYTCEEPYYYMENGGGGEYHCAGNGSWVNEVLGPELPKCVPVCGVPREPFEEKQRIIGGSDADIKNFPWQVFFDNPWAGGALINEYWVLTAAHVVEGNREPTMYVGSTSVQTSRLAKSKMLTPEHVFIHPGWKLLEVPEGRTNFDNDIALVRLKDPVKMGPTVSPICLPGTSSDYNLMDGDLGLISGWGRTEKRDRAVRLKAARLPVAPLRKCKEVKVEKPTADAEAYVFTPNMICAGGEKGMDSCKGDSGGAFAVQDPNDKTKFYAAGLVSWGPQCGTYGLYTRVKNYVDWIMKTMQENSTPRED
  processing of proCFD (IEF immunoblot after overnight incubation at 37 C): the convertase C1S hardly shows effects (lane 4, like MASP1)
